Biological target: the molecule itself
Assay: crystal structure

B1: full length HtpG from M. tuberculosis (HtpGMtb) (enzyme)
chain: MNAHVEQLEFQAEARQLLDLMVHSVYSNKDAFLRELISNASDALDKLRIEALRNKDLEVDTSDLHIEIDADKAARTLTVRDNGIGMAREEVVDLIGTLAKSGTAELRAQLREAKNAAASEELIGQFGIGFYSSFMVADKVQLLTRKAGESAATRWESSGEGTYTIESVEDAPQGTSVTLHLKPEDAEDDLHDYTSEWKIRNLVKKYSDFIAWPIRMDVERRTPASQEEGGEGGEETVTIETETLNSMKALWARPKEEVSEQEYKEFYKHVAHAWDDPLEIIAMKAEGTFEYQALLFIPSHAPFDLFDRDAHVGIQLYVKRVFIMGDCDQLMPEYLRFVKGVVDAQDMSLNVSREILQQDRQIKAIRRRLTKKVLSTIKDVQSSRPEDYRTFWTQFGRVLKEGLLSDIDNRETLLGISSFVSTYSEEEPTTLAEYVERMKDGQQQIFYATGETRQQLLKSPHLEAFKAKGYEVLLLTDPVDEVWVGMVPEFDGKPLQSVAKGEVDLSSEEDTSEAEREERQKEFADLLTWLQETLSDHVKEVRLSTRLTESPACLITDAFGMTPALARIYRASGQEVPVGKRILELNPSHPLVTGLRQAHQDRADDAEKSLAETAELLYGTALLAEGGALEDPARFAELLAERLARTL
B1: binds.
